In the RNAGym collection of RNA variant scans (doi:10.1073/pnas.2313332121):

B1: TPR t1 (parent)
chain: GACCAAUCUGCCCUCAGAGCUCGAGAACAUCUUCGGAUGCAGAGGAGGCAGGCUUCGGUGGCGCGAUAGCGCCAACGUCCUCAACCUCCAAUGCAUCCCACCACAUGAUGAUGCCUGAAGAGCCUUGGUUUUUUG

Variants of: B1
Test: polymerase ribozyme fitness, log enrichment relative to wild type (log ratio); higher = more active; in vitro selection for triplet polymerase activity
In short: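 Each subunit of a heterodimeric triplet polymerase ribozyme was represented by a PCR-built, transcribed mutant library that underwent triplicate single-round in vitro selection with frozen incubation at −7 °C. Extended constructs were recovered by gel excision, streptavidin-bead capture and RT-PCR, and Illumina sequencing of input and output libraries kept genotypes with ≥10 input reads and ≥1 read per output. Fitness is the logarithm of genotype enrichment relative to wild-type enrichment, from inverse-variance-weighted replicate averages, with a logarithm base of 2.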

Variant | polymerase ribozyme fitness (log ratio)
GACCCUUCUGCCCUCAGAGCUCGAGAACAUCUUCGGAUGCAGAGGAGGCAGGCUUCGGUGGCGCGAUAUCGCCAACGUCCUCAACCUCCAAUGCAUCCCACCACAUGAUGAUGCCUGAAGGGCCUUGGUUUUUUG [A5C A6U G69U A121G] | 2.34
GACCAAUCUGCCCUCAGAGCUCGAGAACAUCUUCGGAUGCAGAGGAGGCAGGCUUUGGUGGCGCGAUAGCGUCAACGACAUCAACCUCCAAUGCAUCCCACCACAUGAUGAUGCCUGAAGAGCCUUGGUUUUUUG [C56U C72U U78A C80A] | -4.1
GACCAAUCUGCCCUCAGAGCUCGAGAACAUCUUCGGAUGCAGAGGAGGCAGGCUUCGGUGGCGCGAUAGCGCCAACGUCCUCAAACUCCAAUGCAUCCCACCACAUGAUGAUGCUUGAAGAGCCUUGGUUUUUUG [C85A C115U] | -2.7
GACCAAUCUGCCCUCAGUGCUCGAGAACAUCUUCGGAUGCAGAGGAGGCAGGCUUCGGGAGCGCGAUAGCGCCAACGUCCUCAACCUCCAAUGCAUCCCACCACAUGAUGAUGCCUGAAGAGCCUUGGUUUUUUG [A18U U59G G60A] | -4.56
GACCAAUCUGCCCUCAGAGCUCGAGAACAUCUUCGGAUGCAGAGGAGCCAGGCUUCGGUGGCGCGAUAGCGCCAACGUCCUCAACCUCCAAUGCAUCCCAACACAUGAUGAUGCCUAAAGAGCCUUGGUUUUUUG [G48C C101A G117A] | -2.54
GACGAACCUGCCCUCAGAGCUCGAGAACAUCUUUGGAGGCAGAGGAGGCAGGCGUCGGUGGCGCGAUAUCGCCAACGUCCUCAACCUCCAAUGCAUCCCACCACAUGAAGGUGCCUGAAGAGCCUUGGUUUUUUG [C4G U7C C34U U38G U54G G69U U109A A111G] | -5.81
GACCAAUCUGCCCUCAGAGCUCGAGAACAUCUUCGGAUGCAGAGGAGGCGGGCUUCGGUGGCUCGAUAGCGCCAACGUCCUCAACCUCCAAUGCAUCCCACCACAUGAUGAUGCCUGAAGAGCCUUGGUAUUUUG [A50G G63U U130A] | -2.47
GACCAAUCUCCUCACAGAGCUCGAGAACAUCUUCGGAUGCAGAGGAGGCAGGCUUCGGUGGCGCGAUAGCUCCAACGUCCUCAACCUCCAAUGCAUCCCACCACAUUAUGAUGCCUGAAGAGCCUUGGUUUUUUG [G10C C12U U14A G71U G107U] | -5.41
GACCAAUCUGCCCUCAGAGCUCGAGAACAUCUUCGGAUUCAGAGGAGGCAGGCUUCGGUGGCGCGAUAGCGCCAACGUCCUCAACCUCCAAUGCAUCCCACCACAUGAUGAUGCCUGAAGAGCCUUCGUUUUUUG [G39U G127C] | -1.28
GACCAAUCUGCCCUCAGCGCUCGAGAACAUCUUCGGAUGCAGAGGAGGCAGGCUUCGCUGGCGCGAUAGCGCCAACGUCCUCAACCUCCAAUGCAUCCCACCACAUGAUGAUGCCUGAAGAGCCUUGGUUUUUUG [A18C G58C] | -2.1
GACCAAUCUGCCCUCAGAGCUCGAGAACAUCUUCGGAUGCAGAGGAGGCAGGCUUCGGUGGCGCGAUAGCGCCAACGUCCUCAACCUCGAAUAGAUCCCACCACAUGAUGAUGCCUGAAGAGCGUUGCUUUUUUG [C89G G93A C94G C124G G128C] | -7.66
GACCAAUAUGCCCUAAGAGCUCGAGAACAUCUUCGGAUGCAGAGGAGGCAGCCUUCGGUGGCGCGAUAGCGCCAACGUCAUCAACCUCCAAUGCAUCCCACCACAUGAUGAUGCCUGAAGAGCCUUGGUUUUUUG [C8A C15A G52C C80A] | -4.36
GACCAAUCUGCCCUCAGAGCUCGAGAACAUCUUCGGAUGCAGAGGAGGCAGGCUUCGGUGGCACGAUAGCGCCAACGCCCUCAACCUCCAAUGCAUCCCACCACAUGAUGAUACCUGAAGAGCCUUGGUUUUUUG [G63A U78C G113A] | -1.96
GACCAAUGUGCCCUUAGAGCUCGAGAACAUCUUCGGAUGCAGAGGAGGCAGGCUUCGGUGGCGCGAUACCGCCAACGUCCUCAACCUCCUAUGCAUCCCACCACAUGAUGAUGCCUGAAGAGCCUUGGUUUUUUG [C8G C15U G69C A90U] | -3.02
GACCAAUCUGCCCUCAGAGCUCGAGAACAUCUUCGGAUGCAGAGGAGGCAGGCUUCGGUGGCGAGAUAGCGCCAACGUCCUCAACCUGCAAUGCAUCCCACCACAUGAUGAUGCCUGAAGAGCCUUGGUUUUUUG [C64A C88G] | -6.08
GACCAAUCUGCCCUCAGAGCUCGAGAACAUCUUCGGAUGCAGAGGAGGCAGGCUUCGGUGGCGCGAUAGCGCGAACGUCCUCAUCCUCCAAUGCAUCCCACCACAUGAUGAUGCCUGAAGAGCCUUGGUUUUUUG [C73G A84U] | -1.52
GACCAACCUGUCCUCAGAGCUCGAGAACAUCUUCGGAUGCAGAGGAGGCAGGCUUCGGUGGCGCGAUAGCGCUAACGUCCUCAACCUCCAAUUCAUCCCACCACAUGAUGAUGCCUGAAGAGCCUUGGUUUUUUG [U7C C11U C73U G93U] | -1.53
GACCAAUCUGCCUUCAGAGCUCGAGAACAUCUUCGGAUGCAGAGGAGGCAGGGUUAGGUGGCGCGAUAGCGCCAACGUCCUCAACCUCCAAUGCAUCCCACCACAUGAUGAUGCCUGAAGAGCCUUGGUUUUUUG [C13U C53G C56A] | -0.438
GACCAAUCAGCCCUCAGAGCUCGAGAACAUCUUCGGAUGCAGAGGAGGCAGGCUUCGCUGGCGCGAUAGCACCAACGUCCUCAACCUCCAAUGCAUCCCACCACAUGAUGAACCCUGAAGAGCCUUGUUUUUUUG [U9A G58C G71A U112A G113C G128U] | -3
GACCAAUCUGCCCUCAGAGCUCGAGAACAUCUUCGGAUGCAGAGGAGGCAGGCUUCGGUUGCGCGAUAGCGCCAACGUUCUCAACCUCCAAUGCAUCCCACCACAUGAUGAUGCCUGAAGAGCCUUGGUUUUUUG [G60U C79U] | 0.386
GACCAAUCUGCCCUCAGAGCUAGAGAACAUCUUCGGAUGCAGAGGAGGCAGGCUUCGGUGGCUCGAUAGCGCCAACGUCCUCAACCUCCAAUGCAUCCCAUCACAUGAUGAUGCCUGAAGAGCCUUGGUUUUUUG [C22A G63U C101U] | -6.16
